According to the supplement of paper PMC10567573:
± gives the standard deviation.

Test: protein stability index of a GFP-peptide fusion (GPS, HEK-293T) (PSI 1-6); higher = more stable
[1] = treatment: DMSO, c terminus: a fixed tail appended
[2] = treatment: MLN4924 1 uM, 8 h, c terminus: a fixed tail appended
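Further: 24-mer peptide tiles fused after GFP, lentivirally expressed, FACS-sorted into six equal bins by GFP/DsRed ratio, decoded by Illumina sequencing, PSI is the read-weighted mean bin number.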

Sequence | protein stability index [1] | protein stability index [2] | protein stability index (treatment: DMSO, c terminus: native) | protein stability index (treatment: MLN4924 1 uM, 8 h, c terminus: native)
EEDLVLTCEDDEDEELGGSSRVPV [ZBTB22] | 5.67 ± 0.24 | 5.6 ± 0.21 |  | 
MAAGNTVIAKPSELTSVTAWMLCK [ALDH8A1] | 2.44 ± 0.1 | 2.35 ± 0.23 |  | 
IAKELSKTYQETPEIDMFLNVATF [ZBED1] | 2.07 ± 0.24 | 2.12 ± 0.16 |  | 
FIPECNDDGTYSQVQCHSYTGYCW [SMOC2] | 2.79 ± 1 | 2.27 ± 0.45 |  | 
ALTYACAGGYVDVVKVLLESGASI [ANKRD17] | 2.64 ± 0.33 | 2.79 ± 0.48 |  | 
PPRSDTIANYELVYKDGEHGEEQR [PTPRD] | 5.48 ± 0.21 | 5.57 ± 0.14 |  | 
FDKKDRRALHWAAYMGHLDVVALL [ANKRD44] | 2.61 ± 0.82 | 2.24 ± 0.22 |  | 
FRTKFETEQALRLSVEADINGLRR [KRT17] | 3.37 ± 0.14 | 3.38 ± 0.32 |  | 
VYSCAFSPDSSMLCSVGASKAVFL [WSB1] | 2.8 ± 0.5 | 2.86 ± 0.49 |  | 
WQLYYSKKLLDSWFTSTQEKKHK [JAGN1] |  |  | 2.28 ± 0.49 | 2.7 ± 0.29
EDVEDHYEMGEELGSGQFAIVRKC [DAPK3] | 5.06 ± 0.099 | 5.3 ± 0.35 |  | 
NAYHIERLMSFRPICSANHKESKM [CRYBA1] | 3.12 ± 0.16 | 3.29 ± 0.12 |  | 
LKQRTVIEMFKSITHSTVGSKGEK [EHMT1] | 3.16 ± 0.18 | 3.17 ± 0.33 |  | 
VPVVTPTASTAPPVPATAPSPAPA [SNAP91] | 4.98 ± 0.17 | 5.05 ± 0.11 |  | 
GASKAAGVFGFFATIVFATDFYLI [CMTM3] | 3.07 ± 0.23 | 2.88 ± 0.88 |  | 
SWWADLRALARNLIFGLITCLTGV [SPNS1] | 3.88 ± 0.43 | 3.92 ± 0.24 |  | 
EATNGREGLLRFSSWPFSIQDVVQ [AUP1] | 2.93 ± 0.21 | 3.09 ± 0.37 |  | 
DSDDDDDVAVTVDRDRFMDEFFEQ [STX1A] | 5.36 ± 0.49 | 5.43 ± 0.32 |  | 
ENYHKLRRSSSKCIHDHHCGSQLS [NETO1] | 3.1 ± 0.27 | 3.26 ± 0.4 |  | 
SFACQCPEGHVLRSDGKTCAKLDS [MATN2] | 4.41 ± 0.39 | 4.88 ± 0.27 |  | 
AAQSTKSPWNFLGDELYEQSDEEQ [CLPTM1] | 5.25 ± 0.19 | 5.35 ± 0.18 |  | 
VRYSDCCERVVINVSGLRFETQMK [KCNA4] | 2.31 ± 0.46 | 2.33 ± 0.37 |  | 

Sequence | protein stability index [1] | protein stability index [2] | protein stability index (treatment: DMSO, c terminus: native) | protein stability index (treatment: MLN4924 1 uM, 8 h, c terminus: native)
QFYRNLGKSGLRVSCLGLGTWVTF [KCNAB2] | 2.24 ± 0.86 | 2.2 ± 0.32 |  | 
THQHWQQFEPQLTLWDVFGANKEV [RSAD1] | 2.65 ± 0.34 | 2.66 ± 0.24 |  | 
CKCSEGFVLAEDGRRCKKCTEGPI [MATN2] | 4.99 ± 0.2 | 5.41 ± 0.081 |  | 
PNIAMTSGTVQPKQDAFANFANFS [CLINT1] | 3.61 ± 0.34 | 3.66 ± 0.14 |  | 
CRERWHNHLNPEVKKSCWTEEEDR [MYBL2] | 4.2 ± 0.4 | 4.34 ± 0.25 |  | 
ATSESTTVEPGKLDVGATEGQDLQ [DRICH1] | 5.46 ± 0.27 | 5.5 ± 0.22 |  | 
MMHGLKPLSLVKRTDLKDLIIFDK [CEP70] | 2.37 ± 0.12 | 2.92 ± 0.47 |  | 
YPTCGIGYPVSSAFAFQNTFPHSI [SASS6] | 2.66 ± 0.55 | 2.49 ± 0.41 |  | 
RGTHAVVGVATARAPLHSVGYTAL [SPSB4] | 2.68 ± 0.27 | 2.63 ± 0.41 |  | 
RLTQYMDGSGMPKTMQSEETRVWH [CAMK2D] | 3.44 ± 0.47 | 3.51 ± 0.19 |  | 
EISGPLTSANKITLVSSGSGTMGA [FLOT1] | 3.46 ± 0.046 | 3.5 ± 0.26 |  | 
WTALHFAAQNGDESSTRLLLEKNA [RIPK4] | 3.4 ± 0.08 | 3.28 ± 0.33 |  | 
LFYILTFVGAIFNGLTLLILGVIG [RTN2] | 2.7 ± 0.85 | 3.01 ± 0.67 |  | 
EKIQQDADSVITVGRGEVVTVRVP [ACBD3] | 4.55 ± 0.16 | 4.63 ± 0.14 |  | 
TRDGFKLVMASLYHIYVALEEEIE [HMOX1] | 2.15 ± 0.52 | 2.56 ± 0.51 |  | 
SDRPFKCNQCGKCFIQSSHLIRHQ [ZNF8] | 3.31 ± 0.17 | 3.76 ± 0.61 |  | 
EHGEKIYFFCENDAEFLCVFCREG [TRIM15] | 2.36 ± 0.082 | 2.53 ± 0.42 |  | 
YVDVVFANRPDPNTPMEETVRAMT [KCNAB2] | 2.66 ± 0.34 | 3.09 ± 0.7 |  | 
LASYLDRVRSLETENRRLESKIRE [KRT18] | 3.58 ± 0.34 | 3.7 ± 0.11 |  | 
EREMAEIRDQMQQQLNDYEQLLDV [LMNB1] | 5.15 ± 0.17 | 5.09 ± 0.19 |  | 
RDGLAEDLAALKQRLEEETRKRED [PRPH] | 5.33 ± 0.33 | 5.25 ± 0.27 |  | 
RHAQTISGHALRILIVDWDVHHGN [HDAC6] | 2.18 ± 0.18 | 2.34 ± 0.4 |  | 
